According to US20170087188A1, “WNT INDUCED MOTILITY AND ENHANCED ENGRAFTMENT OF CELLS” (OTTAWA HOSPITAL RESEARCH INSTITUTE, priority 2014, published 2017):
Entries after “also recorded” stand apart in the source; their conditions may differ.

Tests used:
primary myoblasts = test: Proliferation of primary myoblasts over five days; assay type: cell-based; conditions: 3 h exposure; various concentrations; over 5 days
Procedure: The proliferation of primary myoblasts following a 3 h exposure to various concentrations of Wnt7a was analyzed to control for the effect being due to changes in the cell cycle status of the transplanted cells.

[1] = test system: tibialis anterior (TA) muscle; test: In vivo myoblast dispersal assay, tdTomato myoblasts into TA of C57BL/6 mice; design: species or system mouse; conditions: myoblasts treated 3 h, transplanted into TA of immunosuppressed C57BL/6 mice; 7 days; vs Veh.
Procedure: The duration of effects on cell migration were tested by loading intracellular stores with Wnt7a. tdTomato-expressing primary myoblasts, derived from tamoxifen treated Pax7-CreER; R26R-tdTomato mice (Yin et al., 2013a) were exposed to Wnt7a for 3 h; then the cells were washed and transplanted into the tibialis anterior (TA) muscle of immunosuppressed C57BL/6 mice (FIG. 5A). The myoblasts were co-injected with fluorescent microspheres to identify the injection site in subsequent analyses. 7 days later the mice were sacrificed and the behavior of the transplanted cells in the tissue was analyzed by scoring the number of tdTomato-expressing myofibers that were generated by fusion events with the donor cells. Transplantation of zsGreen-expressing satellite cells or myoblasts into mdx mice was performed as previously described (Bentzinger et al., 2013c). Before transplantation the cells were treated for 3 h with Wnt7a, Wnt5a, or Wnt3a (R&D Systems) at a concentration of 50 ng/mL for freshly isolated satellite cells or with 100 ng/mL for cultured cells. Myoblasts expressing tdTomato were transplanted into uninjured muscles of C57BL/6 mice that were implanted with an osmotic pump (Alzet) delivering FK506 (Sigma) at 2.5 mg/kg/day 3 days prior to the transplantations. […]

C2C12 cells = test: Morphological quantification of triangular polarized C2C12 cells; assay type: cell-based
Description: Cell migration is typically accompanied by cytoskeletal polarization leading to a distinctive triangular cell shape.
Fzd7-YFP was expressed in myogenic cells and induced polarization by 130% (FIG. 1A and FIG. 9A). […] The majority of Fzd7-YFP localized to small intracellular vesicles associated with the tubulin cytoskeleton in C2C12 cells (FIG. 1B). By contrast, no such localization could be observed for YFP alone (FIG. 9B).
For myoblast culture, satellite cells were FACS purified as described (Bentzinger et al., 2013c) and plated on Collagen-coated dishes (BD Biosciences) in Ham's F10 medium supplemented with 20% FBS and 5 ng/mL of basic FGF (Millipore). C2C12 cells and human myoblasts were cultured as previously described (von Maltzahn et al., 2012). For in vitro morphology quantifications, Wnt7a was used at a concentration of 50 ng/mL.

Rac1 = Rac1 activation assay in mouse primary myoblasts; assay type: cell-based; conditions: Wnt7a overexpression (Wnt7a-HA retrovirus) vs empty virus
Description: Wnt7a signaling in satellite cells involves Rac1. Polarized peripheral Fzd7-tdTomato colocalized with GFP-Rac1 in C2C12 cells (FIG. 3A). It was hypothesized that the small GTPase Rac1 might also be involved in Wnt7a mediated cell polarization and migration. […] Various forms of Wnt signaling require Disheveled (Dvl) proteins.
For co-immunoprecipitation (CoIP) experiments and the Rac1 activation assay, satellite cell-derived primary myoblasts were infected with retroviruses generated from empty pHAN or from pHAN-Wnt7a-HA (Kuroda et al., 2013). Dvl2 knockdown was performed with an ON-TARGETplus siRNA SMARTpool (L-040921-01, Thermo Fisher Scientific) (Wu et al., 2008) using Lipofectamine RNAiMAX (Life Technologies) according to the manufacturer's instructions. As a control for the knockdown, a non-silencing siRNA SMARTpool was used (D-001810-10, Thermo Fisher Scientific). Cell extracts were obtained through RIPA buffer lysis in the presence of a protease inhibitor cocktail (Nacalai). For CoIP of Rac1 with Dvl2, rabbit anti-Dvl2 antibody was coupled to Protein A Dynabeads (Life Technologies). Denaturing SDS-PAGE was performed using standard techniques. Rac1 activation assay was performed according to the manufacturer's instructions (Pierce).

mouse primary myoblasts = test: Scratch migration assay, mouse primary myoblasts; assay type: cell-based
Procedure: Cellular polarization is indicative of increased motility (de Forges et al., 2012). Scratch assays were used to test whether Wnt7a and Fzd7 polarization affect cell motility. To exclude effects on the localization of cells arising from altered rates of proliferation, cells were treated with Mitomycin-C.
Fzd7 deficient cells migrated 59% less compared to heterozygous myoblasts and expression of Fzd7-Flag in Fzd7 knockout myoblasts restored migration to normal levels (FIG. 2D). […] To investigate whether the stimulation of myoblast migration is dose dependent, different concentrations of Wnt7a and Wnt3a were tested for their effect on migration.
Following plasmid transfection or application of Wnts (R&D Systems), the cells were treated with Mitomycin-C for 2 h (50 μg/mL). Subsequently, the monolayer of cells was scraped in a straight line. The plates were then extensively washed with culture medium and incubated for 24 h before analysis. Analysis was performed using DAPI staining after matching the reference points and enumeration of DAPI-stained nuclei in the scar was performed. Unless otherwise indicated, Wnt7a and Wnt3a were used at a concentration of 100 ng/mL in scratch assays. Monodansylcadaverine (MDC, 30432, Sigma) was used in scratch assays at a concentration of 50 μm.

Fzd7 = test: Subcellular distribution of Fzd7-YFP in primary myoblasts; assay type: cell-based; conditions: Wnt7a stimulated vs controls
Procedure: The effect of Wnt7a treatment on the subcellular distribution of Fzd7 was tested. […] Furthermore, it was observed that myoblasts exposed to conditioned medium containing HA epitope tagged Wnt7a (Wnt7a-HA) quickly endocytosed this factor. After 3 h of incubation and several subsequent washing steps, endocytosed Wnt7a-HA was detectable for ≧72 h in intracellular structures in primary myoblasts (FIG. 4E) and C2C12 cells (FIG. 11E).

B1: Wnt7a: non-canonical Wnt polypeptide (R&D Systems) used to treat or load myogenic cells (protein, UniProt O00755 32-349, looked up)
Protein Wnt-7a: LGASIICNKIPGLAPRQRAICQSRPDAIIVIGEGSQMGLDECQFQFRNGRWNCSALGERTVFGKELKVGSREAAFTYAIIAAGVAHAITAACTQGNLSDCGCDKEKQGQYHRDEGWKWGGCSADIRYGIGFAKVFVDAREIKQNARTLMNLHNNEAGRKILEENMKLECKCHGVSGSCTTKTCWTTLPQFRELGYVLKDKYNEAVHVEPVRASRNKRPTFLKIKKPLSYRKPMDTDLVYIEKSPNYCEEDPVTGSVGTQGRACNKTAPQASGCDLMCCGRGYNTHQYARVWQCNCKFHWCCYVKCNTCSERTEMYTCK
With B1 the “rate of proliferation of primary myoblasts” value (primary myoblasts) was “No change in the rate of proliferation”, the “increase in number of tdTomato-expressing myofibers” value [1] was 119% and the “increase in the abundance of triangular polarized cells” value (C2C12 cells; C2C12 myoblasts, vs vehicle treated cells expressing YFP, Wnt7a 50 ng/mL) was 111%. For the same molecule, the “increase in cell polarization” value (C2C12 cells; Fzd7-YFP expressing C2C12 cells treated with Wnt7a) was 167%, the “activation of Rac1” value (Rac1) was “significantly increased the activation of Rac1” and the “dose dependency of myoblast migration” value (mouse primary myoblasts; different concentrations tested, mouse primary myoblasts) was “relatively linear increases in cell migration”. The “response of cell migration to Wnt7a in Fzd7 knockout myoblasts” value (mouse primary myoblasts; primary myoblasts from Fzd7−/− mice) was “do not respond; also recorded: no reaction”, the “increase in cell migration” value (mouse primary myoblasts; satellite cell derived mouse primary myoblasts, Wnt 100 ng/mL, vs Veh. or empty vector) was 136% and the “subcellular distribution of Fzd7-YFP” value (Fzd7) was “decreases the abundance of peripheral Fzd7-YFP; also recorded: higher abundance of large intracellular aggregates and reduced peripheral Fzd7-YFP”.
